The target of data set [1] is T1, SOX2 (human, UniProt P48431 1-317). Nature of the data set: Ni-NTA filter microplate fluorescent DNA binding.
For data set [2], the target named is T1, SOX2. Nature of the data set: competition.
The target in another data set is NANOG (human, UniProt Q9H9S0 1-305). Nature of the data set: Ni-NTA filter microplate fluorescent DNA binding.

One may read the Kd as the constant that tells how readily two partners part at equilibrium. High values mean weaker binding, low ones tighter binding.

T1 sequence (P48431 whole entry): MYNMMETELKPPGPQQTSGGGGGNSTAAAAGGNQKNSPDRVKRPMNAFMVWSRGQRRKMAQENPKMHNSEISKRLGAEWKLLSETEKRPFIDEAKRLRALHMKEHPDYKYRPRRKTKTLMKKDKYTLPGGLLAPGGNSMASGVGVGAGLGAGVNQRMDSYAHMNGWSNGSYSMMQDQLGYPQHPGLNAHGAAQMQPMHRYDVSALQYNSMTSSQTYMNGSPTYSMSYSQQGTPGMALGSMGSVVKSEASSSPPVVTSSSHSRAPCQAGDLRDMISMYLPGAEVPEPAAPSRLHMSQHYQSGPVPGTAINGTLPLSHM
Sequence of NANOG (Q9H9S0 whole entry): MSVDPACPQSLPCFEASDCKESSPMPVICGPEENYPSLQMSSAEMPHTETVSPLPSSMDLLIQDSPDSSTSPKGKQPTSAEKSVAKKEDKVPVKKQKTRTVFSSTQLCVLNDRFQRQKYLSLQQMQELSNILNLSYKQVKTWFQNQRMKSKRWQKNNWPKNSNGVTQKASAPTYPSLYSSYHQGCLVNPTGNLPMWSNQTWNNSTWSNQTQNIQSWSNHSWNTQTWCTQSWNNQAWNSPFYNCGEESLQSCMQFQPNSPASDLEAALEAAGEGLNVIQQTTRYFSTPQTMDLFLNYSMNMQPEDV

B1: SOX2 cognate probe (CR4 POU5F1) (dsDNA)
DNA 1: GCAGAGGACAAAGGTGCCGTG
DNA 2: CACGGCACCTTTGTCCTCTGC
B1 yielded a Kd with SOX2 [1] of 54.2 ± 9 nM.

B2: nonsense probe (dsDNA)
DNA 1: GCCCGATTACTCTGTCCT
DNA 2: AGGACAGAGTAATCGGGC
Consider B2, for which the binding result with SOX2 [2] was “no binding”.

B3: NANOG cognate probe (Tcf3 enhancer) (dsDNA)
DNA 1: ACCTGTTAATGGGAGCGC
DNA 2: GCGCTCCCATTAACAGGT
B3 registered an equilibrium dissociation constant (Kd) with NANOG of 44 ± 6 nM.

For the origin of these results see article PMC3175489.
